Legend:
[1] = target: T1, purified mTfR1 mutant M2 (NAS) (mouse, UniProt Q62351 89-763); assay: ELISA, coated purified mTfR-1 mutant M2 (NAS) against WT
T1 construct: also called G254A

[2] = target: T2, recombinant human TfR-1, His-tagged (Sino Biological 11020-H07H) (human, UniProt P02786 89-760); assay: SPR, His-captured TfR1
T2 construct: bought; His-tagged; also called hTfR1; hTfR-1
Method: (§1) Detailed binding kinetic analyses were performed to gain a better understanding of the relationship between affinity and brain penetration of the Clone H variants. Biacore surface plasmon resonance (SPR) analysis using immobilized mouse and human TfR-1 was performed for the clones (Table 5).
(§2) Binding kinetics of VNAR-Fcs was determined by surface plasmon resonance (Biacore T200, GE Healthcare). CMS chips were coated with anti-His antibodies (His Capture Kit, GE Healthcare) as recommended by the manufacturer and human or mouse his-tagged TfR1 (SinoBiological) at 10 ug/mL in HBS-EP+ (GE Healthcare) was captured at flow rate 10 ul/min (contact time 120 s). […] A flow cell without TfR1 captured served as a reference. Sensorgrams were fitted and kinetic constants were determined using Biacore T200 Evaluation software. Chips were regenerated in 10 mM Glycine-HCl, pH 1.5 (contact time: 120 s at flow rate 30 ul/min).

[3] = target: T3, recombinant mouse TfR-1, His-tagged (Sino Biological 50741-M07H) (mouse, UniProt Q62351 89-763); assay: SPR, His-captured TfR1
T3 construct: bought; His-tagged; also called mTfR1; mTfR-1
Method: as §1, §2

[4] = target: T1, purified mTfR1 mutant M2 (NAS); assay: ELISA, coated purified mTfR-1
[5] = target: purified WT mTfR-1 (ELISA coat) (mouse, UniProt Q62351 89-763); assay: ELISA, coated purified mTfR-1
[6] = target: T4, purified mTfR1 mutant M3 (NGA) (mouse, UniProt Q62351 89-763); assay: ELISA, coated purified mTfR-1
T4 construct: also called S255A

[7] = target: T5, purified mTfR1 mutant M1 (AGS) (mouse, UniProt Q62351 89-763); assay: ELISA, coated purified mTfR-1
T5 construct: also called N253A
T5 sequence (Q62351 other isoform, or with tags, fused parts or gaps mutant): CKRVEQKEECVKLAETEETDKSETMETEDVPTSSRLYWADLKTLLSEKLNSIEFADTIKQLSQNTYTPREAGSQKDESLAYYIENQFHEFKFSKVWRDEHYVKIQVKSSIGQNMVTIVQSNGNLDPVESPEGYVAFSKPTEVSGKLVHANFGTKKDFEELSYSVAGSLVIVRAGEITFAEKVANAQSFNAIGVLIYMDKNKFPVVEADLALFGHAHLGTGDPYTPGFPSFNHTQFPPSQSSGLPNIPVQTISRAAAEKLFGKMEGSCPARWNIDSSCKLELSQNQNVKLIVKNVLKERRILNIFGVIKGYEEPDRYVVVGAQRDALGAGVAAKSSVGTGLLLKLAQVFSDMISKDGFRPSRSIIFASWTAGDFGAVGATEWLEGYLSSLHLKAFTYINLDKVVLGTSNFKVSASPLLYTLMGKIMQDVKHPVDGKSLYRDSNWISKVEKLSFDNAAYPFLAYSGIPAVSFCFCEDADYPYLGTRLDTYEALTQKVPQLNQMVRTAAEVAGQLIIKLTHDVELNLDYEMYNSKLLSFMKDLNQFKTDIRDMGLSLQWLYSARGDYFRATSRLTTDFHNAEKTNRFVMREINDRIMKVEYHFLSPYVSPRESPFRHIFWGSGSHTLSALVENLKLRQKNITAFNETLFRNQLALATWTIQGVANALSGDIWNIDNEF

T2 sequence (P02786 89-760 limits assumed): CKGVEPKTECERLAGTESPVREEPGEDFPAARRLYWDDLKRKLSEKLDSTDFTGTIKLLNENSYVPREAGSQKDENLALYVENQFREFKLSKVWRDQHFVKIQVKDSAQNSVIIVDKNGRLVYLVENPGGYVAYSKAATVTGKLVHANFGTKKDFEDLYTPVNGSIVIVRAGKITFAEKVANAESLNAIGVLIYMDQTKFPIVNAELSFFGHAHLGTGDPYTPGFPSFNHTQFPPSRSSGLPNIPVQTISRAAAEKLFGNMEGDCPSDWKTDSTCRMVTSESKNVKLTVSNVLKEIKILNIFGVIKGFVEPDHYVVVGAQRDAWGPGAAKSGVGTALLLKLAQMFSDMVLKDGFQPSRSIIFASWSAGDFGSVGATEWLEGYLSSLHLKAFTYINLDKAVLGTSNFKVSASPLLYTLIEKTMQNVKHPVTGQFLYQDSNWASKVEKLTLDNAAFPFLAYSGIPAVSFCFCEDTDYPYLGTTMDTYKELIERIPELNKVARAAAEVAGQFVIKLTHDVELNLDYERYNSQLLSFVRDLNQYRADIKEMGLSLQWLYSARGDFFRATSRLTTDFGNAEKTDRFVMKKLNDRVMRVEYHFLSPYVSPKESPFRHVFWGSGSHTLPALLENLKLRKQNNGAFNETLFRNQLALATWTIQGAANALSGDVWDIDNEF
T3 sequence (Q62351 89-763 limits assumed, stated change not applied): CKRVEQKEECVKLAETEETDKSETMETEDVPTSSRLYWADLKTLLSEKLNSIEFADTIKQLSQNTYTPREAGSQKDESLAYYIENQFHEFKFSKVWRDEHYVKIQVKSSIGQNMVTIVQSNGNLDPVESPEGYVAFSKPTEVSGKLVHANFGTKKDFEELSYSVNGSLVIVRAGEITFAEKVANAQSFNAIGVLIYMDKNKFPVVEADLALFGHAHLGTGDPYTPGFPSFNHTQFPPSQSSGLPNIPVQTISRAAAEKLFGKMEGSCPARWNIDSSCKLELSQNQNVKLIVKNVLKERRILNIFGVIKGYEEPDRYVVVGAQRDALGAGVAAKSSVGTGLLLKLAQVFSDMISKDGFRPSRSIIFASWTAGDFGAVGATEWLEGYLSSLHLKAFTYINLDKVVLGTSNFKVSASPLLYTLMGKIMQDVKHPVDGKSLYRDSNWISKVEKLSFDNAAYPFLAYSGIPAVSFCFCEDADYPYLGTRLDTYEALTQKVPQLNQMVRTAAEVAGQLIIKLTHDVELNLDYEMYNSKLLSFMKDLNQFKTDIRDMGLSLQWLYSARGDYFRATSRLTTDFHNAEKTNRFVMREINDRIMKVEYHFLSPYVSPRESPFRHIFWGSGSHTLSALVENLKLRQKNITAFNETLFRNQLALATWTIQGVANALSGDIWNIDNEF
T1 sequence (Q62351 other isoform, or with tags, fused parts or gaps mutant): as the sequence (Q62351 89-763 limits assumed, stated change not applied) above, with G166A counted along it
Chain of purified WT mTfR-1 (ELISA coat) (Q62351 89-763): as the sequence (Q62351 89-763 limits assumed, stated change not applied) above
T4 sequence (Q62351 other isoform, or with tags, fused parts or gaps mutant): as the sequence (Q62351 89-763 limits assumed, stated change not applied) above, with S167A counted along it

Binder | fold reduction of binding relative to WT mTfR-1 [1] [fold] | Kd [2] [nM] | koff [2] [s⁻¹] | kon [2] [M⁻¹ s⁻¹] | Kd [3] [nM] | koff [3] [s⁻¹] | kon [3] [M⁻¹ s⁻¹] | EC50 [4] [nM] | EC50 [5] [nM] | EC50 [6] [nM] | EC50 [7] [nM]
Clone H variant 1 VNAR-hFc (Fc fusion, not shown: a dimerising Fc or GST, also called clone H var) ARVDQTPQTITKETGESLTINCVLRDSNCELSSTYWYRKKSGSTNEESISKGGRYVETVNSGSKSFSLRINDLVVEDSGTYRCNVVQWPSSSNGRYWCDVYGGGTAVTVNA | ~10 | 2.38 | 0.000121 | 50800 | 4.69 | 0.000195 | 41600 | 4.7 | 0.69 | 0.99 | 1.4
Clone H variant 10 VNAR-hFc (Fc fusion, not shown: a dimerising Fc or GST, also called clone H var; 10) ARVDQTPQTITKETGESLTINCVLRDSNCELSSTYWYRKKSGSTNEESISKGGRYVETVNSGSKSFSLRINDLVVEDSGTYRCNVQQFPSWFNGRYWCDVYGGGTAVTVNA | ~10 | 3.37 | 0.000269 | 79900 | 5.53 | 0.000279 | 50500 | 22 | 2.5 | 4 | 3.3

Source: patent US20210403591A1 (OSSIANIX, published 2021)
